# Laboratory results from patent publication US10919943B2, “Mutant proteins enabling agrochemical control of plant gene expression” (The Regents of the University of California, priority 2016, dated 2021).
# T1: PYR1 (Arabidopsis thaliana, UniProt O49686)
# T1 construct: expressed in transfected cells; host or cells: S. cerevisiae strain Y190
# T1 sequence (O49686 1-191): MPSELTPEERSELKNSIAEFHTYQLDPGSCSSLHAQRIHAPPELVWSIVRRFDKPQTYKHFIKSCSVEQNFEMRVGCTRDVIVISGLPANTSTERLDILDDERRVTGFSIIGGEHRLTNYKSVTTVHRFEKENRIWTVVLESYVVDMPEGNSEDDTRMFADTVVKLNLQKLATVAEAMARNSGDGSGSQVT
# Target: T1, PYR1
# Assay: Yeast two hybrid of pACT-HAB1 site saturation mutants with pBD-PYR1 on 10 μM ABA, β-galactosidase staining
# Assay type: cell-based
# Design: key: x: Mutations in HAB1 that disrupt HAB1 interaction with PYR1
# Conditions: S. cerevisiae Y190, 10 μM ABA; dead = lack of detectable staining in comparison to wild type control
# From the text: To systematically define mutations in HAB1 that disrupt its binding to PYR1, we used site saturation mutagenesis to create a collection all possible single amino acid substitutions in 20 residues lining the PYR1 binding interface, and then assayed the ability of each mutant to bind PYR1 using the yeast two hybrid assay described above. We targeted the following residues for mutagenesis: R199, 5200, E201, E203, H245, G246, G247, S322, E323, T324, K381, I383, Q384, W385, Q386, R389, F391, G392, V393, and Y404. To create the collection of mutations, mutagenic “NNK” site directed mutagenesis primers were synthesized for each of the 20 positions and the primers used in QuickChange site-directed mutagenesis reactions using a previously described pACT-HAB1 template (Park et al., 2009). We note that this clone uses a HAB1 cDNA lacking its three N-terminal amino acids. The reaction products were digested with DpnI, and transformed into competent Escherichia coli DH5α cells and plasmid DNA for 96 colonies per site was isolated using Bioneer AccuPrep® Plasmid Mini Extraction Kit (Alameda, Calif.) and sequenced to identify mutants. This process identified most of the 19 desired mutations per target site; the remaining mutations were constructed directly using specific mutagenic primers. To interrogate the effects of the mutations on PYR1-HAB1 interactions, the mutant clones were individually transformed into S. cerevisiae strain Y190 containing pBD-PYR1 (Park et al., 2009). Yeast transformants were selected for the presence of plasmids on selective SD (-Leu,-Trp) plates and then spotted onto SD (-Leu,-Trp) agar plates supplemented with 10 μM ABA. After incubating the test plates at 30° C. for two days, the colonies were lysed with chloroform and stained to reveal […] expression levels. “Dead” mutants were defined by lack of detectable staining in comparison to a wild type pBD-PYR1/pACT-HAB1 control. This screening effort defined 163 mutations that disrupt the ABA-induced PYR1/HAB1 interaction (Table 2).
row,Mutations in HAB1 that disrupt HAB1 interaction with PYR1,Molecule
1,x,"I383Y: HAB1 mutant (protein, UniProt Q9CAJ0 23-511, looked up, variant I383Y) Protein phosphatase 2C 16: SPVEITQLKNVTDAADLLSDSENQSFCNGGTECTMEDVSELEEVGEQDLLKTLSDTRSGSSNVFDEDDVLSVVEDNSAVISEGLLVVDAGSELSLSNTAMEIDNGRVLATAIIVGESSIEQVPTAEVLIAGVNQDTNTSEVVIRLPDENSNHLVKGRSVYELDCIPLWGTVSIQGNRSEMEDAFAVSPHFLKLPIKMLMGDHEGMSPSLTHLTGHFFGVYDGHGGHKVADYCRDRLHFALAEEIERIKDELCKRNTGEGRQVQWDKVFTSCFLTVDGEIEGKIGRAVVGSSDKVLEAVASETVGSTAVVALVCSSHIVVSNCGDSRAVLFRGKEAMPLSVDHKPDREDEYARIENAGGKVYQWQGARVFGVLAMSRSIGDRYLKPYVIPEPEVTFMPRSREDECLILASDGLWDVMNNQEVCEIARRRILMWHKKNGAPPLAERGKGIDPACQAAADYLSMLALQKGSKDNISIIVIDLKAQRKFKTRT"
2,x,"I383K: HAB1 mutant (protein, UniProt Q9CAJ0 23-511, looked up, variant I383K) Protein phosphatase 2C 16: SPVEITQLKNVTDAADLLSDSENQSFCNGGTECTMEDVSELEEVGEQDLLKTLSDTRSGSSNVFDEDDVLSVVEDNSAVISEGLLVVDAGSELSLSNTAMEIDNGRVLATAIIVGESSIEQVPTAEVLIAGVNQDTNTSEVVIRLPDENSNHLVKGRSVYELDCIPLWGTVSIQGNRSEMEDAFAVSPHFLKLPIKMLMGDHEGMSPSLTHLTGHFFGVYDGHGGHKVADYCRDRLHFALAEEIERIKDELCKRNTGEGRQVQWDKVFTSCFLTVDGEIEGKIGRAVVGSSDKVLEAVASETVGSTAVVALVCSSHIVVSNCGDSRAVLFRGKEAMPLSVDHKPDREDEYARIENAGGKVKQWQGARVFGVLAMSRSIGDRYLKPYVIPEPEVTFMPRSREDECLILASDGLWDVMNNQEVCEIARRRILMWHKKNGAPPLAERGKGIDPACQAAADYLSMLALQKGSKDNISIIVIDLKAQRKFKTRT"
3,x,"I383D: HAB1 mutant (protein, UniProt Q9CAJ0 23-511, looked up, variant I383D) Protein phosphatase 2C 16: SPVEITQLKNVTDAADLLSDSENQSFCNGGTECTMEDVSELEEVGEQDLLKTLSDTRSGSSNVFDEDDVLSVVEDNSAVISEGLLVVDAGSELSLSNTAMEIDNGRVLATAIIVGESSIEQVPTAEVLIAGVNQDTNTSEVVIRLPDENSNHLVKGRSVYELDCIPLWGTVSIQGNRSEMEDAFAVSPHFLKLPIKMLMGDHEGMSPSLTHLTGHFFGVYDGHGGHKVADYCRDRLHFALAEEIERIKDELCKRNTGEGRQVQWDKVFTSCFLTVDGEIEGKIGRAVVGSSDKVLEAVASETVGSTAVVALVCSSHIVVSNCGDSRAVLFRGKEAMPLSVDHKPDREDEYARIENAGGKVDQWQGARVFGVLAMSRSIGDRYLKPYVIPEPEVTFMPRSREDECLILASDGLWDVMNNQEVCEIARRRILMWHKKNGAPPLAERGKGIDPACQAAADYLSMLALQKGSKDNISIIVIDLKAQRKFKTRT"
4,x,"W385L: HAB1 mutant (protein, UniProt Q9CAJ0 23-511, looked up, variant W385L) Protein phosphatase 2C 16: SPVEITQLKNVTDAADLLSDSENQSFCNGGTECTMEDVSELEEVGEQDLLKTLSDTRSGSSNVFDEDDVLSVVEDNSAVISEGLLVVDAGSELSLSNTAMEIDNGRVLATAIIVGESSIEQVPTAEVLIAGVNQDTNTSEVVIRLPDENSNHLVKGRSVYELDCIPLWGTVSIQGNRSEMEDAFAVSPHFLKLPIKMLMGDHEGMSPSLTHLTGHFFGVYDGHGGHKVADYCRDRLHFALAEEIERIKDELCKRNTGEGRQVQWDKVFTSCFLTVDGEIEGKIGRAVVGSSDKVLEAVASETVGSTAVVALVCSSHIVVSNCGDSRAVLFRGKEAMPLSVDHKPDREDEYARIENAGGKVIQLQGARVFGVLAMSRSIGDRYLKPYVIPEPEVTFMPRSREDECLILASDGLWDVMNNQEVCEIARRRILMWHKKNGAPPLAERGKGIDPACQAAADYLSMLALQKGSKDNISIIVIDLKAQRKFKTRT"
5,x,"I383H: HAB1 mutant (protein, UniProt Q9CAJ0 23-511, looked up, variant I383H) Protein phosphatase 2C 16: SPVEITQLKNVTDAADLLSDSENQSFCNGGTECTMEDVSELEEVGEQDLLKTLSDTRSGSSNVFDEDDVLSVVEDNSAVISEGLLVVDAGSELSLSNTAMEIDNGRVLATAIIVGESSIEQVPTAEVLIAGVNQDTNTSEVVIRLPDENSNHLVKGRSVYELDCIPLWGTVSIQGNRSEMEDAFAVSPHFLKLPIKMLMGDHEGMSPSLTHLTGHFFGVYDGHGGHKVADYCRDRLHFALAEEIERIKDELCKRNTGEGRQVQWDKVFTSCFLTVDGEIEGKIGRAVVGSSDKVLEAVASETVGSTAVVALVCSSHIVVSNCGDSRAVLFRGKEAMPLSVDHKPDREDEYARIENAGGKVHQWQGARVFGVLAMSRSIGDRYLKPYVIPEPEVTFMPRSREDECLILASDGLWDVMNNQEVCEIARRRILMWHKKNGAPPLAERGKGIDPACQAAADYLSMLALQKGSKDNISIIVIDLKAQRKFKTRT"
6,x,"W385A: HAB1 mutant (protein, UniProt Q9CAJ0 23-511, looked up, variant W385A) Protein phosphatase 2C 16: SPVEITQLKNVTDAADLLSDSENQSFCNGGTECTMEDVSELEEVGEQDLLKTLSDTRSGSSNVFDEDDVLSVVEDNSAVISEGLLVVDAGSELSLSNTAMEIDNGRVLATAIIVGESSIEQVPTAEVLIAGVNQDTNTSEVVIRLPDENSNHLVKGRSVYELDCIPLWGTVSIQGNRSEMEDAFAVSPHFLKLPIKMLMGDHEGMSPSLTHLTGHFFGVYDGHGGHKVADYCRDRLHFALAEEIERIKDELCKRNTGEGRQVQWDKVFTSCFLTVDGEIEGKIGRAVVGSSDKVLEAVASETVGSTAVVALVCSSHIVVSNCGDSRAVLFRGKEAMPLSVDHKPDREDEYARIENAGGKVIQAQGARVFGVLAMSRSIGDRYLKPYVIPEPEVTFMPRSREDECLILASDGLWDVMNNQEVCEIARRRILMWHKKNGAPPLAERGKGIDPACQAAADYLSMLALQKGSKDNISIIVIDLKAQRKFKTRT"
7,x,"I383E: HAB1 mutant (protein, UniProt Q9CAJ0 23-511, looked up, variant I383E) Protein phosphatase 2C 16: SPVEITQLKNVTDAADLLSDSENQSFCNGGTECTMEDVSELEEVGEQDLLKTLSDTRSGSSNVFDEDDVLSVVEDNSAVISEGLLVVDAGSELSLSNTAMEIDNGRVLATAIIVGESSIEQVPTAEVLIAGVNQDTNTSEVVIRLPDENSNHLVKGRSVYELDCIPLWGTVSIQGNRSEMEDAFAVSPHFLKLPIKMLMGDHEGMSPSLTHLTGHFFGVYDGHGGHKVADYCRDRLHFALAEEIERIKDELCKRNTGEGRQVQWDKVFTSCFLTVDGEIEGKIGRAVVGSSDKVLEAVASETVGSTAVVALVCSSHIVVSNCGDSRAVLFRGKEAMPLSVDHKPDREDEYARIENAGGKVEQWQGARVFGVLAMSRSIGDRYLKPYVIPEPEVTFMPRSREDECLILASDGLWDVMNNQEVCEIARRRILMWHKKNGAPPLAERGKGIDPACQAAADYLSMLALQKGSKDNISIIVIDLKAQRKFKTRT"
8,x,"I383G: HAB1 mutant (protein, listed as Arabidopsis thaliana) MEEMTPAVAMTLSLAANTMCESSPVEITQLKNVTDAADLLSDSENQSFCNGGTECTMEDVSELEEVGEQDLLKTLSDTRSGSSNVFDEDDVLSVVEDNSAVISEGLLVVDAGSELSLSNTAMEIDNGRVLATAIIVGESSIEQVPTAEVLIAGVNQDTNTSEVVIRLPDENSNHLVKGRSVYELDCIPLWGTVSIQGNRSEMEDAFAVSPHFLKLPIKMLMGDHEGMSPSLTHLTGHFFGVYDGHGGHKVADYCRDRLHFALAEEIERIKDELCKRNTGEGRQVQWDKVFTSCFLTVDGEIEGKIGRAVVGSSDKVLEAVASETVGSTAVVALVCSSHIVVSNCGDSRAVLFRGKEAMPLSVDHKPDREDEYARIENAGGKVGQWQGARVFGVLAMSRSIGDRYLKPYVIPEPEVTFMPRSREDECLILASDGLWDVMNNQEVCEIARRRILMWHKKNGAPPLAERGKGIDPACQAAADYLSMLALQKGSKDNISIIVIDLKAQRKFKTRT"
